For the test, the target named is slac1_arath SLAC1 (UniProt Q9LD83).
slac1_arath SLAC1, sequence (Q9LD83 whole entry): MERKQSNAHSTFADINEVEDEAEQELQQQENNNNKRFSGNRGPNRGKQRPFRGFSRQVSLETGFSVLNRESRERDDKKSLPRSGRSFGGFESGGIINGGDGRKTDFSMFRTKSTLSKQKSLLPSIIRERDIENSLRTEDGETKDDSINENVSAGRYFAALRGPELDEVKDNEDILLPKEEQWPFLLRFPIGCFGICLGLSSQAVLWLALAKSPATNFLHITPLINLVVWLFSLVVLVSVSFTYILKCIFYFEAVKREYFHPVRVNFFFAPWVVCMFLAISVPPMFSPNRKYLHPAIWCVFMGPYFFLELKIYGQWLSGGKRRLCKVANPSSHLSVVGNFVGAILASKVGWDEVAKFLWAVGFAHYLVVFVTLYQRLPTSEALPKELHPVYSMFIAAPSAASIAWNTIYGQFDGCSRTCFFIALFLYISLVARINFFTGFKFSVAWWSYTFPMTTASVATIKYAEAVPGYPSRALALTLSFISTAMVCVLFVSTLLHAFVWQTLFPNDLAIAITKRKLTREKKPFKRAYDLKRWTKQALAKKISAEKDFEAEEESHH

Calcium-dependent protein kinase 23 (Arabidopsis thaliana (Mouse-ear cress)), Q9M101 D193A, sequence (Q9M101 whole entry D193A): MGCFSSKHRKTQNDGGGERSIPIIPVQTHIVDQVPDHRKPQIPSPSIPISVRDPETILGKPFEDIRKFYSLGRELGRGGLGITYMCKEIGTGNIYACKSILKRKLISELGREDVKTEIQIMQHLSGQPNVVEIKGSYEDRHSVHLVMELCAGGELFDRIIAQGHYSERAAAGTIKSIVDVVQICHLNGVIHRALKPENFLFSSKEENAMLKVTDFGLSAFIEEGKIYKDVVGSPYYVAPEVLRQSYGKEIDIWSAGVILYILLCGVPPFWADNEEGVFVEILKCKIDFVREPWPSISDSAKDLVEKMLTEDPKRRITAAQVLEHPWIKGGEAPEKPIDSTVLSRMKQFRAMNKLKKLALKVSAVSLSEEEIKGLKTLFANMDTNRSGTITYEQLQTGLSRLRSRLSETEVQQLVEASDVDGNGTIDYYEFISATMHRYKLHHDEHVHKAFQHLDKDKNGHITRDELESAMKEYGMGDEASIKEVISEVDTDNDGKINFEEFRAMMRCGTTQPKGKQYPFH

In the case of “Calcium-dependent protein kinase 23 (Arabidopsis thaliana (Mouse-ear cress)), Q9M101 D193A”, the “effect of a mutation on the interaction” value is “disrupting interaction”.

Values taken from IntAct's records for PubMed 20385816.
